The source of these data is paper PMC8387239, “Structural and functional characterization of the intracellular filament-forming nitrite oxidoreductase multiprotein complex” (Nature Microbiology, 2021).

Data set [1] concerns the target NXR-T (Kustd1705), tubule-inducing NXR subunit, recombinant, N-terminal His-tag cleaved (Kuenenia stuttgartiensis). The data set can be described thus: cryo-EM structure; helical reconstruction of tubules reconstituted from KsNXR-ABC and Kustd1705, 5.8 Å after density modification.
Data set [2] has as its target T1, anammoxosomal tubules (NXR A, B, C and T subunits) (Candidatus Kuenenia stuttgartensis, UniProt Q1PZD8).
T1 construct: gene narG; native tubules purified from K. stuttgartiensis cells by size exclusion and sucrose density gradient; with nitrite oxidoreductase subunit B, iron-sulfur subunit (NarH-like); nitrite oxidoreductase subunit C, haem b-containing subunit; nitrite oxidoreductase tubule-inducing subunit T, monohaem cytochrome c
The data set can be described thus: spectrophotometric, ferricyanide reduction at […] nm. The note with it: 2 mM sodium nitrite; 800 µM ferricyanide; 50 mM KPi, 150 mM NaCl, pH 7.25; 35 °C; without dodecyl maltoside. Type of data set: biochemical.

In data set [3] the target is Broful_01488, NXR-T homologue from Brocadia fulgida, recombinant, N-terminal His-tag cleaved (Brocadia fulgida). The data set can be described thus: crystal structure; Broful_01488 after cleavage of the N-terminal His-tag; 0.02 M LiCl, 0.02 M glycine pH 10.0, 33% PEG 1000, 0.05 M MgCl2; 4.0-4.5 Å, partial model.
The target of data set [4] is NXR-T (Kustd1705), recombinant, as used for analytical ultracentrifugation (tagged version not stated) (Kuenenia stuttgartiensis). The data set is described as follows: AUC; sedimentation velocity and sedimentation equilibrium; 25 mM HEPES/KOH pH 7.5, 25 mM KCl; 25,000 or 30,000 r.p.m., 24 h, 20 °C; scans at 415 nm.
Substrate in data set [5]: O=[N+]([O-])O
The data set can be described thus: purified protein. Format: biochemical, Candidatus Kuenenia stuttgartensis. The conditions noted are these: reduced methyl viologen as electron donor, 50 mM KPi, pH 7.2, 35 °C, anaerobic.

Substrate in data set [6]: O=NO
The data set is described as follows: purified protein. Type of data set: biochemical, Candidatus Kuenenia stuttgartensis. The note with it: 800 µM ferricyanide as electron acceptor, 50 mM KPi, 150 mM NaCl, pH 7.25, 35 °C.

T1 sequence (Q1PZD5 1-410 partner, one chain of several): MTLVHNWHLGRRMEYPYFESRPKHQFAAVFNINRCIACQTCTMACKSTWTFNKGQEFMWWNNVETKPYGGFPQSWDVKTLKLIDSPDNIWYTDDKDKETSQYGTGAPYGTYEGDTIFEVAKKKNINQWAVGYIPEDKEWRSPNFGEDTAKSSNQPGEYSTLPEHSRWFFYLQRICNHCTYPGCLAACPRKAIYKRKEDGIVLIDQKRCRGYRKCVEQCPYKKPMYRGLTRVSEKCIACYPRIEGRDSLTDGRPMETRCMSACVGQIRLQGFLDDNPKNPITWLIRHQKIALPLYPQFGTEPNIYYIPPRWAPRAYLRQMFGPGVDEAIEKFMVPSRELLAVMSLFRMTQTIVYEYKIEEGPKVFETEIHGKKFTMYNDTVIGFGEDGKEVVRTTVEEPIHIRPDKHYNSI
T1 sequence (Q1PZD4 29-322 partner, one chain of several): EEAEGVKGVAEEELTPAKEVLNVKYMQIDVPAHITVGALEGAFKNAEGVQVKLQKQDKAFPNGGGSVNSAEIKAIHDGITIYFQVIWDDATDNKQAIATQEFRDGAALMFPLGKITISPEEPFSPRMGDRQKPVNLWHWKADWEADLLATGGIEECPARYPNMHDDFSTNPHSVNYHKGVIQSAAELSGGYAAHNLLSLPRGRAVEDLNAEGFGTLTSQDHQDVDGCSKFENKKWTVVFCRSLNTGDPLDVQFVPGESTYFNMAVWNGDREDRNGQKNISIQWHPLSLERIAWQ
T1 sequence (A0A2C9CDL6 21-180 partner, one chain of several): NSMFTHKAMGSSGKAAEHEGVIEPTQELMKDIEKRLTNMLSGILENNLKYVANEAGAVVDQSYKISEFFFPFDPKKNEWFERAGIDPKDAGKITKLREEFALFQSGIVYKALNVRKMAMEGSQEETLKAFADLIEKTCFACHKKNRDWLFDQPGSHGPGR

As for “NXR-T (Kustd1705), tubule-inducing NXR subunit, recombinant, N-terminal His-tag cleaved (natural protein)”, the stoichiometry N in data set [1] stood at 2.

With `O=NO` [nitrite], in data set [2], the “spectrophotometric, ferricyanide reduction at 420 nm” value is reported as “can be disassembled by adding the detergent dodecyl maltoside, show nitrite oxidation activity”.

On to “Broful_01488, NXR-T homologue from Brocadia fulgida, recombinant, N-terminal His-tag cleaved (natural protein)”, for which the stoichiometry N in data set [3] is 2.

On to “NXR-T (Kustd1705), recombinant, as used for analytical ultracentrifugation (tagged version not stated) (natural protein)”, for which, in data set [4], the stoichiometry N was found to be 2.

B1: KsNXR-ABC (Candidatus Kuenenia stuttgartensis) (protein)
chain: FRLLKPAVVVDNPLDTYPDRRWESVYRDQYQYDRTFTYCCSPNDTHACRIRAFVRNNVMMRVEQNYDHQNYSDLYGNKATRNWNPRMCLKGYTFHRRVYGPYRLRYPLIRKGWKRWADDGFPELTPENKTKYMFDNRGNDELLRASWDEAFTYASKGIIHITKKYSGPEGAQKLIDQGYPKEMVDRMQGAGTRTFKGRGGMGLLGVIGKYGMYRFNNCLAIVDAHNRGVGPDQALGGRNWSNYTWHGDQAPGHPFSHGLQTSDVDMNDVRFSKLLIQTGKNLIENKMPEAHWVTEVMERGGKIVVITPEYSPSAQKADYWIPIRNNTDTALFLGITKILIDNKWYDADYVKKFTDFPLLIRTDTLKRVSPKDIIPNYKLQDISDGPSYHIQGLKDEQREIIGDFVVWDAKSKGPKAITRDDVGETLVKKGIDPVLEGSFKLKTIDGKEIEVMTLLEMYKIHLRDYDIDSVVSMTNSPKDLIERLAKDIATIKPVAIHYGEGVNHYFHATLMNRSYYLPVMLTGNVGYFGSGSHTWAGNYKAGNFQASKWSGPGFYGWVAEDVFKPNLDPYASAKDLNIKGRALDEEVAYWNHSERPLIVNTPKYGRKVFTGKTHMPSPTKVLWFTNVNLINNAKHVYQMLKNVNPNIEQIMSTDIEITGSIEYADFAFPANSWVEFQEFEITNSCSNPFIQIWGKTGITPVYESKDDVKILAGMASKLGELLRDKRFEDNWKFAIEGRASVYINRLLDGSTTMKGYTCEDILNGKYGEPGVAMLLFRTYPRHPFWEQVHESLPFYTPTGRLQAYNDEPEIIEYGENFIVHREGPEATPYLPNAIVSTNPYIRPDDYGIPENAEYWEDRTVRNIKKSWEETKKTKNFLWEKGYHFYCVTPKSRHTVHSQWAVTDWNFIWNNNFGDPYRMDKRMPGVGEHQIHIHPQAARDLGIEDGDYVYVDANPADRPYEGWKPNDSFYKVSRLMLRAKYNPAYPYNCTMMKHSAWISSDKTVQAHETRPDGRALSPSGYQSSFRYGSQQSITRDWSMPMHQLDSLFHKAKIGMKFIFGFEADNHCINTVPKETLVKITKAENGGMGGKGVWDPVKTGYTAGNENDFMKKFLNGELIKVDA
notes: untagged; with nitrite oxidoreductase subunit B, iron-sulfur subunit (NarH-like); nitrite oxidoreductase subunit C, haem b-containing subunit
For B1, the Km was determined as 14 ± 1 µM in “purified protein [5]” and 22 ± 5 µM in “purified protein [6]”.
